The supplement of paper PMC12783771
± gives the standard deviation of the averaged measurements.

B1: library; numbered along this chain (parent)
chain: MNIQIGELAKRTACPVVTIRFYEQEGLLPPPGRSRGNFRLYGEEHVERLQFIRHCRSLDMPLSDVRTLLSYRKRPDQDCGEVNMLLDEHIRQVESRIGALLELKHHLVELREACSGARPAQSCGILQGLSDCVCDTRGTTAHPSD

What was measured:
[1] = variants of: B1; experiment: sfGFP reporter fluorescence (15 h) (µM FITC); higher = higher leak; settings: library round: Round 0; ligand: none
Outline: (§1)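 Values are endpoint sfGFP fluorescence given as µM FITC equivalents. Fluorescence was read at 485/528 nm on a Synergy Neo2, and FITC standard curves were prepared in 50 mM sodium borate pH 8.5. Reactions of 1 μL combined BL21 Star (DE3) PANOx-SP extract, pPbrR-sfGFP reporter, 30 μg/mL GamS and linear PbrR templates (PCR-made, Echo-normalized to 5 nM), with 1 µM lead chloride, 30 µM zinc acetate or no metal, for 15 hr at 30 °C.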

[2] = variants of: B1; experiment: sfGFP reporter fluorescence (15 h) (µM FITC); higher = stronger transcriptional activation; settings: library round: Round 0
Outline: as §1

M60D
sfGFP reporter fluorescence [1]: 0.0616 ± 0.001 | sfGFP reporter fluorescence ([2]; ligand: 1 µM Pb): 0.0619 ± 0.0015 | sfGFP reporter fluorescence ([2]; ligand: 30 µM Zn): 0.063 ± 0.0015

D64C
sfGFP reporter fluorescence [1]: 0.0848 ± 0.032 | sfGFP reporter fluorescence ([2]; ligand: 1 µM Pb): 0.335 ± 0.072 | sfGFP reporter fluorescence ([2]; ligand: 30 µM Zn): 2.45 ± 0.3

E43S
sfGFP reporter fluorescence [1]: 0.06102 ± 0.00026 | sfGFP reporter fluorescence ([2]; ligand: 1 µM Pb): 0.0889 ± 0.015 | sfGFP reporter fluorescence ([2]; ligand: 30 µM Zn): 1.41 ± 0.17

E43L
sfGFP reporter fluorescence [1]: 0.05113 ± 0.00026 | sfGFP reporter fluorescence ([2]; ligand: 1 µM Pb): 0.0713 ± 0.007 | sfGFP reporter fluorescence ([2]; ligand: 30 µM Zn): 1.01 ± 0.038

F21C
sfGFP reporter fluorescence [1]: 0.0599 ± 0.0029 | sfGFP reporter fluorescence ([2]; ligand: 1 µM Pb): 0.0597 | sfGFP reporter fluorescence ([2]; ligand: 30 µM Zn): 0.0583 ± 0.001

F21D
sfGFP reporter fluorescence [1]: 0.0616 ± 0.0015 | sfGFP reporter fluorescence ([2]; ligand: 1 µM Pb): 0.0614 ± 0.0013 | sfGFP reporter fluorescence ([2]; ligand: 30 µM Zn): 0.0599 ± 0.00078

F21I
sfGFP reporter fluorescence [1]: 0.0597 | sfGFP reporter fluorescence ([2]; ligand: 1 µM Pb): 0.0575 ± 0.0031 | sfGFP reporter fluorescence ([2]; ligand: 30 µM Zn): 0.0607 ± 0.0018

E7Y
sfGFP reporter fluorescence [1]: 0.06249 ± 0.00026 | sfGFP reporter fluorescence ([2]; ligand: 1 µM Pb): 0.06542 ± 0.00026 | sfGFP reporter fluorescence ([2]; ligand: 30 µM Zn): 0.2223 ± 0.00026

E7I
sfGFP reporter fluorescence [1]: 0.059 ± 0.001 | sfGFP reporter fluorescence ([2]; ligand: 1 µM Pb): 0.0759 ± 0.0031 | sfGFP reporter fluorescence ([2]; ligand: 30 µM Zn): 0.696 ± 0.014

E7K
sfGFP reporter fluorescence [1]: 0.0662 ± 0.00078 | sfGFP reporter fluorescence ([2]; ligand: 1 µM Pb): 0.113 ± 0.0023 | sfGFP reporter fluorescence ([2]; ligand: 30 µM Zn): 1.99 ± 0.1

E7H
sfGFP reporter fluorescence [1]: 0.06139 ± 0.00026 | sfGFP reporter fluorescence ([2]; ligand: 1 µM Pb): 0.083 ± 0.0013 | sfGFP reporter fluorescence ([2]; ligand: 30 µM Zn): 0.638 ± 0.036

E7S
sfGFP reporter fluorescence [1]: 0.0625 ± 0.0018 | sfGFP reporter fluorescence ([2]; ligand: 1 µM Pb): 0.087 ± 0.0044 | sfGFP reporter fluorescence ([2]; ligand: 30 µM Zn): 0.999 ± 0.052

P30R
sfGFP reporter fluorescence [1]: 0.06414 ± 0.00052 | sfGFP reporter fluorescence ([2]; ligand: 1 µM Pb): 0.088 | sfGFP reporter fluorescence ([2]; ligand: 30 µM Zn): 1.15 ± 0.039

P30W
sfGFP reporter fluorescence [1]: 0.0634 ± 0.0015 | sfGFP reporter fluorescence ([2]; ligand: 1 µM Pb): 0.0722 ± 0.0031 | sfGFP reporter fluorescence ([2]; ligand: 30 µM Zn): 0.33 ± 0.015

Y41R
sfGFP reporter fluorescence [1]: 0.0618 ± 0.0013 | sfGFP reporter fluorescence ([2]; ligand: 1 µM Pb): 0.0623 ± 0.001 | sfGFP reporter fluorescence ([2]; ligand: 30 µM Zn): 0.0643 ± 0.0013

Y41Q
sfGFP reporter fluorescence [1]: 0.0581 ± 0.0023 | sfGFP reporter fluorescence ([2]; ligand: 1 µM Pb): 0.0597 | sfGFP reporter fluorescence ([2]; ligand: 30 µM Zn): 0.0574 ± 0.0054

Y41D
sfGFP reporter fluorescence [1]: 0.0601 ± 0.001 | sfGFP reporter fluorescence ([2]; ligand: 1 µM Pb): 0.0607 ± 0.00078 | sfGFP reporter fluorescence ([2]; ligand: 30 µM Zn): 0.0621 ± 0.0023

Y41P
sfGFP reporter fluorescence [1]: 0.0583 ± 0.001 | sfGFP reporter fluorescence ([2]; ligand: 1 µM Pb): 0.0597 ± 0.001 | sfGFP reporter fluorescence ([2]; ligand: 30 µM Zn): 0.0601 ± 0.0026

R20E
sfGFP reporter fluorescence [1]: 0.0603 ± 0.0023 | sfGFP reporter fluorescence ([2]; ligand: 1 µM Pb): 0.0616 ± 0.0015 | sfGFP reporter fluorescence ([2]; ligand: 30 µM Zn): 0.06175 ± 0.00026

R20Q
sfGFP reporter fluorescence [1]: 0.06212 ± 0.00026 | sfGFP reporter fluorescence ([2]; ligand: 1 µM Pb): 0.0607 ± 0.00078 | sfGFP reporter fluorescence ([2]; ligand: 30 µM Zn): 0.074 ± 0.0031

L40A
sfGFP reporter fluorescence [1]: 0.0608 ± 0.0031 | sfGFP reporter fluorescence ([2]; ligand: 1 µM Pb): 0.0658 ± 0.0018 | sfGFP reporter fluorescence ([2]; ligand: 30 µM Zn): 0.207 ± 0.0036

I90Y
sfGFP reporter fluorescence [1]: 0.0608 ± 0.0026 | sfGFP reporter fluorescence ([2]; ligand: 1 µM Pb): 0.108 ± 0.0023 | sfGFP reporter fluorescence ([2]; ligand: 30 µM Zn): 0.9855 ± 0.0052

I90G
sfGFP reporter fluorescence [1]: 0.0535 ± 0.0031 | sfGFP reporter fluorescence ([2]; ligand: 1 µM Pb): 0.0577 ± 0.00078 | sfGFP reporter fluorescence ([2]; ligand: 30 µM Zn): 0.222 ± 0.0086

I90K
sfGFP reporter fluorescence [1]: 0.0621 ± 0.0023 | sfGFP reporter fluorescence ([2]; ligand: 1 µM Pb): 0.099 ± 0.0047 | sfGFP reporter fluorescence ([2]; ligand: 30 µM Zn): 0.85 ± 0.061

D64K K104V
sfGFP reporter fluorescence [1]: 0.4361 ± 0.0031 | sfGFP reporter fluorescence ([2]; ligand: 1 µM Pb): 1.44 ± 0.053 | sfGFP reporter fluorescence ([2]; ligand: 30 µM Zn): 4.041 ± 0.031

C134R
sfGFP reporter fluorescence [1]: 0.0731 ± 0.0023 | sfGFP reporter fluorescence ([2]; ligand: 1 µM Pb): 0.0993 ± 0.0042 | sfGFP reporter fluorescence ([2]; ligand: 30 µM Zn): 1.66 ± 0.018

C134L
sfGFP reporter fluorescence [1]: 0.0673 ± 0.00078 | sfGFP reporter fluorescence ([2]; ligand: 1 µM Pb): 0.113 ± 0.012 | sfGFP reporter fluorescence ([2]; ligand: 30 µM Zn): 1.3 ± 0.054

C134E
sfGFP reporter fluorescence [1]: 0.0608 ± 0.001 | sfGFP reporter fluorescence ([2]; ligand: 1 µM Pb): 0.0651 ± 0.0034 | sfGFP reporter fluorescence ([2]; ligand: 30 µM Zn): 0.929 ± 0.095

C123R
sfGFP reporter fluorescence [1]: 0.0599 ± 0.0023 | sfGFP reporter fluorescence ([2]; ligand: 1 µM Pb): 0.061 ± 0.00078 | sfGFP reporter fluorescence ([2]; ligand: 30 µM Zn): 0.0574 ± 0.0044

C123P
sfGFP reporter fluorescence [1]: 0.0559 ± 0.00078 | sfGFP reporter fluorescence ([2]; ligand: 1 µM Pb): 0.05772 ± 0.00026 | sfGFP reporter fluorescence ([2]; ligand: 30 µM Zn): 0.0526 ± 0.00078

C123Y
sfGFP reporter fluorescence [1]: 0.0586 ± 0.0015 | sfGFP reporter fluorescence ([2]; ligand: 1 µM Pb): 0.0579 | sfGFP reporter fluorescence ([2]; ligand: 30 µM Zn): 0.0546 ± 0.0026

L107C G128M
sfGFP reporter fluorescence [1]: 3.17 ± 0.33 | sfGFP reporter fluorescence ([2]; ligand: 1 µM Pb): 3.98 ± 0.14 | sfGFP reporter fluorescence ([2]; ligand: 30 µM Zn): 4.14 ± 0.45

P143A
sfGFP reporter fluorescence [1]: 0.0696 ± 0.0015 | sfGFP reporter fluorescence ([2]; ligand: 1 µM Pb): 0.0806 ± 0.0026 | sfGFP reporter fluorescence ([2]; ligand: 30 µM Zn): 0.4 ± 0.12

P143Q
sfGFP reporter fluorescence [1]: 0.0566 ± 0.0039 | sfGFP reporter fluorescence ([2]; ligand: 1 µM Pb): 0.0735 ± 0.0049 | sfGFP reporter fluorescence ([2]; ligand: 30 µM Zn): 0.871 ± 0.098

P143K
sfGFP reporter fluorescence [1]: 0.0581 ± 0.00078 | sfGFP reporter fluorescence ([2]; ligand: 1 µM Pb): 0.07293 ± 0.00052 | sfGFP reporter fluorescence ([2]; ligand: 30 µM Zn): 0.889 ± 0.15

P143N
sfGFP reporter fluorescence [1]: 0.0568 ± 0.0015 | sfGFP reporter fluorescence ([2]; ligand: 1 µM Pb): 0.0718 ± 0.0057 | sfGFP reporter fluorescence ([2]; ligand: 30 µM Zn): 0.865 ± 0.12

L129Q
sfGFP reporter fluorescence [1]: 0.0588 ± 0.0018 | sfGFP reporter fluorescence ([2]; ligand: 1 µM Pb): 0.0574 ± 0.0013 | sfGFP reporter fluorescence ([2]; ligand: 30 µM Zn): 0.05406 ± 0.00026

L129R
sfGFP reporter fluorescence [1]: 0.0588 ± 0.00078 | sfGFP reporter fluorescence ([2]; ligand: 1 µM Pb): 0.05901 ± 0.00052 | sfGFP reporter fluorescence ([2]; ligand: 30 µM Zn): 0.0557

L129W
sfGFP reporter fluorescence [1]: 0.0572 ± 0.0026 | sfGFP reporter fluorescence ([2]; ligand: 1 µM Pb): 0.06047 ± 0.00052 | sfGFP reporter fluorescence ([2]; ligand: 30 µM Zn): 0.05717 ± 0.00052

V82W
sfGFP reporter fluorescence [1]: 0.0592 ± 0.0013 | sfGFP reporter fluorescence ([2]; ligand: 1 µM Pb): 0.05827 ± 0.00052 | sfGFP reporter fluorescence ([2]; ligand: 30 µM Zn): 0.0555 ± 0.00078

V82D
sfGFP reporter fluorescence [1]: 0.057 ± 0.0044 | sfGFP reporter fluorescence ([2]; ligand: 1 µM Pb): 0.0597 | sfGFP reporter fluorescence ([2]; ligand: 30 µM Zn): 0.055

V82K
sfGFP reporter fluorescence [1]: 0.0601 ± 0.0021 | sfGFP reporter fluorescence ([2]; ligand: 1 µM Pb): 0.0566 ± 0.0039 | sfGFP reporter fluorescence ([2]; ligand: 30 µM Zn): 0.0563 ± 0.0039

D135E
sfGFP reporter fluorescence [1]: 0.0579 ± 0.0021 | sfGFP reporter fluorescence ([2]; ligand: 1 µM Pb): 0.0724 ± 0.0029 | sfGFP reporter fluorescence ([2]; ligand: 30 µM Zn): 0.648 ± 0.055

D135C
sfGFP reporter fluorescence [1]: 0.0603 ± 0.0013 | sfGFP reporter fluorescence ([2]; ligand: 1 µM Pb): 0.0792 ± 0.0036 | sfGFP reporter fluorescence ([2]; ligand: 30 µM Zn): 1.73 ± 0.12
